B1: HDV Ribozyme (parent)
chain: GGCCGGCAUGGUCCCAGCCUCCUCGCUGGCGCCGGCUGGGCAACAUUCCGAGGGGACCGUCCCCUCGGUAAUGGCGAAUGGGACCCA

Variants of: B1
Assay: self-cleavage, relative activity (ratio to wild type); higher = more cleavage; co-transcriptional

Point of comparison: G40C C58U, self-cleavage 0.354. Against it:
- C41U U60C — higher, 0.906
- G38U C44G — lower, 0.0652
- G39C G53C — lower, 0
- G39C G53U — lower, 0.133
- G39A G81A — lower, 0.0898
- G39A A42C — lower, 0
- C41U C61G — higher, 0.923
- G39C C62A — lower, 0.244
- G39A U65G — lower, 0.264
- C41U C86U — higher, 0.967
- G40U G74C — lower, 0.111
- G40U G74U — higher, 0.468
- C41G U47A — higher, 1.12
- C41A C44G — lower, 0.323
- C41A G55C — higher, 0.831
- G40A G73U — higher, 0.554
- C41A C48G — higher, 0.898
- C41G C85G — higher, 0.429
- C41G C85U — higher, 0.629
- G39U G50C — higher, 0.598
- G40C G74C — lower, 0.0652
- G40C C61U — lower, 0.192
- C41U C44G — higher, 0.492
- C41U C44A — lower, 0.353
- G39A C58G — higher, 0.363
- G39U G82C — lower, 0.168
- G40A G82U — lower, 0.198
- G40A G82C — lower, 0.0665
- G39A G53U — higher, 0.504
- G40U C64A — higher, 0.57
- G40U C64U — higher, 0.59
- C41U C63U — higher, 1.12
- G38U A77U — lower, 0.0845
- G38U A77C — lower, 0.0554
- G39A A71U — higher, 0.383
- G38U A56G — lower, 0.193
- G38U A56U — lower, 0.273
- G40A C49G — higher, 0.944
- G38U U72A — lower, 0.0378
- C41U U69C — higher, 0.955
- G40U A51U — higher, 0.806
- G39A C49A — higher, 0.573
- G40U U47G — higher, 0.46
- G40A C61G — higher, 1.17
- G40A C86G — higher, 1.01
- G40A C86U — higher, 0.989
- C41G G54U — higher, 0.739
- G40A G50A — higher, 0.884
- C41U G74U — higher, 0.806
- C41U G74C — lower, 0.174
- G39A G82U — lower, 0.0536
- G39A A43U — lower, 0.0241
- G40A A71G — higher, 0.748
- C41G G82C — lower, 0.158
- G38U A71C — lower, 0.225
- G39C C49G — lower, 0.219
- G40U G80A — lower, 0.197
- G39A G59U — higher, 0.598
- G39A G59C — higher, 0.546
- G39U C48A — higher, 0.658
- G39U C48U — higher, 0.594
- G39U C48G — higher, 0.862
- C41U G52C — higher, 0.819
- C41A U65A — higher, 0.914
- G39U U72G — lower, 0.284
- C41U C62G — higher, 0.426
- C41G C63U — higher, 0.844
- G39C G55A — lower, 0.211
- G39C G55U — lower, 0.305
- G40C G73C — lower, 0.185
- G40C G73A — lower, 0.223
- G39U C41G — higher, 0.46
- C41U A78G — higher, 0.724
- G40U G54U — higher, 0.665
- G40U C41G — higher, 0.729
- C41U G82U — lower, 0.261
- C41U G82A — lower, 0.246
- G40C G76C — lower, 0.197
- C41A G59A — higher, 0.844
- C41A G59C — higher, 0.911
- G39C G81U — lower, 0.143
- G39U G76C — higher, 0.724

— the RNAGym collection of RNA variant scans (doi:10.7554/elife.80360)
